The supplement of paper PMC9876800

System: peptide library, one residue held at a place counted from the S/T acceptor
Test: relative phosphorylation of the sub-library (ratio to the mean residue at this position); higher = residue favoured
Conditions: human
Summary of the method: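 Purified recombinant kinases (human or orthologue constructs) were incubated in 384-well plates with biotinylated degenerate peptide sub-libraries, each fixing one residue at one position around a central Ser/Thr. Peptides were at 50 μM, with 50 μM ATP spiked with γ-32P-ATP, for 90 min under kinase-specific conditions. Spots on streptavidin membranes were phosphorimaged and quantified by densitometry. Relative sub-library phosphorylation is a ratio to the mean residue at that position.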

Sequence of TGFBR2, construct: aa190-end (P37173 190-567, looked up): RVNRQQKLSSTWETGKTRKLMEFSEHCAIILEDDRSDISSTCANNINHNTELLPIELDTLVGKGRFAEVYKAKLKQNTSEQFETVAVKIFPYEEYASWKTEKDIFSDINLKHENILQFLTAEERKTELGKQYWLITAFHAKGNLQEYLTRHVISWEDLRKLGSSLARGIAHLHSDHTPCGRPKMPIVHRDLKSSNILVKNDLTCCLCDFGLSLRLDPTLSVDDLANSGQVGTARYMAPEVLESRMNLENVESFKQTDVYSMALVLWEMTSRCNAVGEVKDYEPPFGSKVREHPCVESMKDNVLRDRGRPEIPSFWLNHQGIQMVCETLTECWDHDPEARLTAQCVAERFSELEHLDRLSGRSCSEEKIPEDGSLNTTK
Sequence of RIPK2, construct: aa2-317 (O43353 2-317, looked up): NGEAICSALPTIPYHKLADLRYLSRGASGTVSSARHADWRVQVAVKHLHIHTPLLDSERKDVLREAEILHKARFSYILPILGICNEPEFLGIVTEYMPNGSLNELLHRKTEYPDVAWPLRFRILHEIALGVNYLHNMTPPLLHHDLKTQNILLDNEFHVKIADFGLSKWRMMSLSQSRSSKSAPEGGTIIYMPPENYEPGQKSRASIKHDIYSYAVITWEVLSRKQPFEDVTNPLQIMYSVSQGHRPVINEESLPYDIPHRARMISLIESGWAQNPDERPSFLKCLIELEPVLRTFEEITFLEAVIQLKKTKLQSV

TGFBR2, construct: aa190-end (from UniProt P37173)
relative phosphorylation
Conditions | at +1 | at +2 | at +3 | at +4 | at -1 | at -2 | at -3 | at -4 | at -5
A fixed | 0.597 | 1.09 | 0.846 | 0.874 | 0.646 | 0.441 | 0.835 | 0.987 | 1
D fixed | 0.508 | 0.616 | 0.509 | 0.57 | 0.715 | 4.02 | 1.25 | 1.01 | 0.775
E fixed | 0.77 | 0.466 | 0.485 | 0.529 | 0.775 | 5.47 | 1.24 | 0.907 | 0.713
F fixed | 1.27 | 0.826 | 1.04 | 0.789 | 1.02 | 0.412 | 0.859 | 0.952 | 0.97
G fixed | 0.63 | 1.36 | 1.29 | 1.08 | 0.67 | 0.665 | 1.05 | 1.08 | 1.11
H fixed | 0.872 | 1.16 | 1.18 | 1.09 | 1.04 | 0.478 | 0.882 | 1.13 | 1.1
I fixed | 1.69 | 1.1 | 1.05 | 1.06 | 0.757 | 0.327 | 0.748 | 0.851 | 0.9
K fixed | 0.531 | 1.26 | 1.12 | 1.43 | 1.03 | 0.447 | 0.855 | 0.91 | 1.2
L fixed | 1.32 | 0.584 | 1.07 | 0.839 | 1.38 | 0.366 | 0.717 | 0.814 | 0.901
M fixed | 2.09 | 0.826 | 0.922 | 0.919 | 1.34 | 0.484 | 0.907 | 0.872 | 0.809
N fixed | 0.801 | 0.891 | 0.941 | 0.85 | 0.812 | 0.877 | 0.982 | 1.08 | 0.908
P fixed | 0.271 | 0.89 | 1.12 | 1.33 | 1.1 | 0.365 | 1.09 | 1 | 0.95
Q fixed | 1.36 | 1.08 | 0.778 | 0.932 | 1.01 | 0.598 | 0.985 | 0.898 | 0.848
R fixed | 0.834 | 1.36 | 1.32 | 1.23 | 0.911 | 0.886 | 1.72 | 1 | 1.17
V fixed | 1.36 | 1.18 | 1.01 | 0.964 | 1.11 | 0.332 | 0.794 | 0.897 | 0.933
W fixed | 0.946 | 1.29 | 1.18 | 1.47 | 1.19 | 0.419 | 1.12 | 1.59 | 1.58
Y fixed | 1.14 | 1.02 | 1.15 | 1.06 | 1.49 | 0.41 | 0.973 | 1.02 | 1.13
pThr fixed | 1.55 | 0.529 | 0.488 | 0.539 | 0.594 | 1.2 | 0.884 | 0.863 | 0.765
pTyr fixed | 0.53 | 0.432 | 0.685 | 0.483 | 0.951 | 0.441 | 0.778 | 0.63 | 0.746

RIPK2, construct: aa2-317 (from UniProt O43353)
relative phosphorylation
Conditions | at +1 | at +2 | at +3 | at +4 | at -1 | at -2 | at -3 | at -4 | at -5
A fixed | 0.347 | 0.349 | 0.463 | 0.669 | 0.597 | 0.592 | 0.889 | 0.727 | 1.01
D fixed | 0.267 | 0.348 | 0.308 | 0.731 | 1.09 | 0.599 | 0.412 | 0.738 | 0.674
E fixed | 0.265 | 0.481 | 0.291 | 0.563 | 0.726 | 0.431 | 0.409 | 0.655 | 0.669
F fixed | 2.32 | 1.73 | 3.03 | 1.2 | 1.31 | 1.12 | 1.17 | 1.15 | 1.44
G fixed | 0.316 | 0.414 | 0.503 | 0.789 | 0.615 | 0.882 | 0.712 | 0.728 | 0.893
H fixed | 0.643 | 1.41 | 0.734 | 1.11 | 1.29 | 1.54 | 0.905 | 1.02 | 0.985
I fixed | 2.75 | 1.96 | 1.31 | 0.975 | 1.11 | 0.86 | 1.27 | 1.12 | 1.13
K fixed | 0.367 | 1.29 | 0.628 | 1.18 | 0.766 | 0.734 | 0.983 | 0.739 | 0.874
L fixed | 1.41 | 1.17 | 1.12 | 0.98 | 1.53 | 1.15 | 1.6 | 1.1 | 1.15
M fixed | 1.4 | 1.12 | 1.41 | 0.967 | 1.74 | 1.18 | 1.2 | 1.23 | 1.17
N fixed | 0.369 | 0.622 | 0.498 | 0.86 | 0.932 | 0.869 | 0.626 | 0.949 | 0.73
P fixed | 0.166 | 0.299 | 0.277 | 0.879 | 0.394 | 0.365 | 0.537 | 0.624 | 0.781
Q fixed | 0.496 | 0.788 | 0.425 | 0.847 | 0.784 | 0.82 | 0.631 | 0.679 | 0.727
R fixed | 0.395 | 1.22 | 0.962 | 1.43 | 0.8 | 1.72 | 2.02 | 0.923 | 1.01
V fixed | 1.58 | 1.14 | 0.845 | 0.638 | 0.75 | 0.64 | 0.797 | 1.02 | 0.917
W fixed | 2.7 | 1.01 | 2.38 | 1.83 | 1.32 | 2.07 | 1.78 | 2.25 | 1.42
Y fixed | 1.22 | 1.65 | 1.81 | 1.34 | 1.24 | 1.42 | 1.05 | 1.35 | 1.42
pThr fixed | 0.578 | 0.83 | 0.416 | 0.82 | 0.77 | 0.688 | 0.707 | 1 | 0.808
pTyr fixed | 0.309 | 0.39 | 0.353 | 0.5 | 1.35 | 0.425 | 0.568 | 0.617 | 0.54
